Patent US20250099634A1, “METHOD OF TREATING CANCER” (Novartis AG, priority 2023, published 2025)

What was measured:
[1] = NETTER-2 deaths (Safety Set); format: in vivo, human
[2] = NETTER-2 worst post-baseline hematology abnormalities based on CTC grades (Safety Set); format: in vivo, human
From the text: (§1) The laboratory assessments require that blood samples for hematology and blood chemistry, and a urine sample for urinalysis are taken. Laboratory assessments will be performed at the investigational site.
(§2) Blood tests performed 4 weeks after any treatment cannot serve as baseline values for the next treatment.
(§3) All laboratory data will be listed by treatment group, subject, and visit/time and if normal ranges are available abnormalities will be flagged. Summary statistics will be provided by treatment and visit/time. Shift tables using the low/normal/high/(low and high) classification will be used to compare baseline to the worst on-treatment value.
(§4) Grading of laboratory values will be assigned programmatically as per NCI Common Terminology Criteria for Adverse Events (CTCAE) version 5.0 or current version. The calculation of CTCAE grades will be based on the observed laboratory values only, clinical assessments will not be taken into account.
(§5) The following summaries will be generated separately for hematology, and biochemistry tests: • 1. Listing of all laboratory data with values flagged to show the corresponding CTCAE grades if applicable and the classifications relative to the laboratory normal ranges • 2. For laboratory tests where grades are defined by CTCAE, • 3. Worst post-baseline CTCAE grade (regardless of the baseline status). Each subject will be counted only once for the worst grade observed post-baseline. • 4. Shift tables using CTCAE grades to compare baseline to the worst on-treatment value • 5. For laboratory tests where grades are not defined by CTCAE, • 6. Shift tables using the low/normal/high/(low and high) classification to compare baseline to the worst on-treatment value.

[3] = test system: midgut carcinoid tumors; conditions: NETTER-1, cited from earlier work
[4] = NETTER-2 worst post-baseline biochemistry abnormalities based on CTC grades (Safety Set); format: in vivo, human
From the text: as §1, §2, §3, §4, §5

[5] = test system: Grade 2 and Grade 3 advanced GEP-NET; assay: NETTER-2 Progression-Free Survival (PFS), central review using RECIST 1.1; format: in vivo, human; conditions: for Kaplan-Meier event-free estimates (95% CI): PFS
Protocol: The primary efficacy end-point is PFS as measured by objective tumor response, which is determined by RECIST criteria, Version 1.1 (Eisenhauer, et al., 2009). Tumor response will be assessed locally and centrally.
It is recommended that for each patient identical acquisition and reconstruction protocols be used at all time-points. Central, blinded, real-time IRC (Independent Review Committee) assessment will be conducted for determining progressive disease. Changes from randomization date will be assessed at week 16±1, week 24±1 and then every 12±1 weeks until the PFS primary analysis End-Point has been reached, then until Week 72 after randomization, unless the patient progresses or dies.
The primary endpoint of the study is progression-free survival (PFS), defined as the time from the date of randomization to the date of the first documented progression or death due to any cause. PFS will be assessed via central review according to RECIST 1.1.
The stratification will be based on following randomization stratification factors (grade: G2 vs. G3; and tumor origin: pNET vs other origin).
Analyses will be based on the FAS population according to the randomized treatment group and strata assigned at randomization. The PFS distribution will be estimated using the Kaplan-Meier method, and Kaplan-Meier curves, median and associated 95% confidence intervals will be presented for each treatment group. The hazard ratio for PFS will be calculated, along with its 95% confidence interval, from a stratified Cox model using the same stratification factors as for the log-rank test.

[6] = in vivo; cited from earlier work
[7] = NETTER-2 subject disposition: discontinuation of randomized treatment phase (Full Analysis Set); format: in vivo, human
From the text: The discontinuation of either study treatments in both arms (Lutathera or octreotide long-acting) is not a reason for patient's withdrawal either from the clinical/tumor assessments until tumor progression, or for early study termination. However, in case of a patient's withdrawal from the clinical/tumor assessments or early study termination (based on either the patient's or the Investigator's decision), patients will undergo all exams scheduled for the End of Treatment (EOT) visit.
The Full Analysis Set (FAS) comprises all subjects to whom study treatment has been assigned by randomization. According to the intent to treat principle, subjects will be analyzed according to the treatment and strata they have been assigned to during the randomization procedure.

[8] = All grades (CTCAE v5.0), randomized treatment period, Safety Set
[9] = central review, RECIST 1.1, Full Analysis Set

C[C@@H](O)[C@H](NC(=O)[C@@H]1CSSC[C@H](NC(=O)[C@@H](Cc2ccccc2)NC(=O)CN2CCN(CC(=O)[O-])CCN(CC(=O)[O-])CCN(CC(=O)[O-])CC2)C(=O)N[C@@H](Cc2ccc(O)cc2)C(=O)N[C@H](Cc2c[nH]c3ccccc23)C(=O)N[C@@H](CCCCN)C(=O)N[C@@H]([C@@H](C)O)C(=O)N1)C(=O)O.[177Lu+3] [Lutathera, ^177Lu-DOTA^0-Tyr^3-Octreotate]
Number of Subjects who Died (Overall) ([1]; Safety Set): 32 (21.8) n (%)
Number of Subjects who Died (Overall), primary reason Adverse Event ([1]; Safety Set): 2 (1.4) n (%)
Number of Subjects who Died (Overall), primary reason Disease under Study ([1]; Safety Set): 30 (20.4) n (%)
Number of Subjects who Died on-treatment in randomized treatment period (within 30 days of last dose), primary reason Disease under Study ([1]; Safety Set): 2 (1.4) n (%)
Number of Subjects who Died on-treatment in re-treatment period (within 30 days of last dose) ([1]; Safety Set): 0 n (%)
Number of subjects who died in the post-treatment follow up period ([1]; Safety Set): 30 (20.4) n (%)
Number of subjects who died in the post-treatment follow up period, primary reason Adverse Event ([1]; Safety Set): 2 (1.4) n (%)
Number of subjects who died in the post-treatment follow up period, primary reason Disease under Study ([1]; Safety Set): 28 (19.0) n (%)
cause of death: adverse event ([1]; during the study): 1.4%
cause of death: disease under study ([1]; during the study): 20.4%
subjects died during the study ([1]; during the study): 21.8%
subjects died within 30 days after the last dose ([1]; randomized treatment period): 1.4%
Worst post-baseline abnormality: Neutrophils (10E9/L)-Decrease [2, 8]: 55 (37.4) n (%)
Grade 3/4 hematologic lab abnormality: lymphocytes decrease ([2]; in vivo): 38.1%
Worst post-baseline abnormality: Leukocytes (10E9/L)-Increase ([2]; in vivo): 0 n (%)
Worst post-baseline abnormality: Neutrophils (10E9/L)-Decrease ([2]; in vivo): 5 (3.4) n (%)
risk reduction in likelihood of progression or death event ([3]; Lutathera versus 60 mg octreotide long-acting): 79%
confirmed events (disease progressions RECIST 1.1 centrally assessed or deaths) [3]: 21
median PFS [3]: not yet been reached
Worst post-baseline abnormality: Bilirubin (umol/L)-Increase [4, 8]: 26 (17.7) n (%)
Worst post-baseline abnormality: Creatinine (umol/L)-Increase [4, 8]: 30 (20.4) n (%)
Worst post-baseline abnormality: Sodium (mmol/L)-Decrease [4, 8]: 32 (21.8) n (%)
Worst post-baseline abnormality: Gamma Glutamyl Transferase (U/L)-Increase ([4]; Grade 3/4 (CTCAE v5.0), randomized treatment period, Safety Set): 38 (25.9) n (%)
Grade 3/4 biochemical lab abnormality: aspartate aminotransferase increase ([4]; in vivo): 2.7%
Grade 3/4 biochemical lab abnormality: bilirubin increase ([4]; in vivo): 2.7%
Worst post-baseline abnormality: Alanine Aminotransferase (U/L)-Increase ([4]; in vivo): 6 (4.1) n (%)
Worst post-baseline abnormality: Bilirubin (umol/L)-Increase ([4]; in vivo): 4 (2.7) n (%)
Worst post-baseline abnormality: Creatinine (umol/L)-Increase ([4]; in vivo): 0 n (%)
Worst post-baseline abnormality: Gamma Glutamyl Transferase (U/L)-Increase ([4]; in vivo): 102 (69.4) n (%)
Worst post-baseline abnormality: Sodium (mmol/L)-Decrease ([4]; in vivo): 1 (0.7) n (%)
Grade 3/4 biochemical lab abnormality: GGT increase ([4]; randomized treatment period): 25.9%
Kaplan-Meier event-free estimates (95% CI) ([5]; 4 months, Full Analysis Set): 95.8 (91.0, 98.1) %
Kaplan-Meier event-free estimates (95% CI) ([5]; 6 months, Full Analysis Set): 92.3 (86.6, 95.7) %
Kaplan-Meier event-free estimates (95% CI) ([5]; 9 months, Full Analysis Set): 85.6 (78.6, 90.5) %
Kaplan-Meier event-free estimates (95% CI) ([5]; 12 months, Full Analysis Set): 80.7 (72.9, 86.4) %
Kaplan-Meier event-free estimates (95% CI) ([5]; 15 months, Full Analysis Set): 71.0 (61.9, 78.3) %
Kaplan-Meier event-free estimates (95% CI) ([5]; 18 months, Full Analysis Set): 66.5 (56.9, 74.4) %
Kaplan-Meier event-free estimates (95% CI) ([5]; 24 months, Full Analysis Set): 49.8 (38.5, 60.1) %
Kaplan-Meier event-free estimates (95% CI) ([5]; 30 months, Full Analysis Set): 36.1 (22.3, 50.1) %
PFS Events ([5]; Full Analysis Set): 55 (36.4) n (%)
PFS events: Deaths ([5]; Full Analysis Set): 8 (5.3) n (%)
PFS events: Progression ([5]; Full Analysis Set): 47 (31.1) n (%)
estimated risk reduction (progression or death) ([5]; Lutathera arm compared to High-dose Octreotide arm): 72%
PFS 25th percentile (95% CI) [5, 9]: 14.1 (10.9, 17.0) months
PFS 75th percentile (95% CI) [5, 9]: NE (29.0, NE)
Clinically significant myelosuppression [6]: less than 10%
grade 3 or 4 lymphopenia [6]: 9%
grade 3 or 4 neutropenia [6]: 1%
grade 3 or 4 thrombocytopenia [6]: 2%
renal toxicities within the period of observation [6]: no evidence of renal toxicities
Reason for End of Randomized Treatment Phase: Death ([7]; Full Analysis Set): 4 (2.6) n (%)
Reason for End of Randomized Treatment Phase: Progressive Disease ([7]; Full Analysis Set): 42 (27.8) n (%)
Reason for End of Randomized Treatment Phase: Adverse Event ([7]; human, in vivo): 8 (5.3) n (%)
Treatment discontinuation due to adverse event ([7]; human, in vivo): 5.3%
discontinuation for progressive disease ([7]; randomized period): 27.8%
